These results are taken from the nanobody polyreactivity screen of Harvey et al. (2022).

This series is described as follows: yeast display, Sf9 membrane polyspecificity reagent, FACS + sequencing; frameworks hold sequencing errors. Put shortly:
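Nanobodies came from a synthetic yeast display library in Saccharomyces cerevisiae BJ5465, induced with galactose for 36–48 hours and stained for 1 hour at 4 °C with 10% biotinylated, detergent-solubilized Sf9 membrane reagent. Cells were enriched on streptavidin microbeads and then FACS-sorted, with low and high (top ~1%) gates set on anti-HA fluorescence for expression and streptavidin fluorescence for reagent binding. Each polyreactivity label reflects the gate a clone came from. Genes were amplified by colony PCR, sequenced by MiSeq 2 × 250 and filtered by CDR length.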
In the case of “QVQLVESGGGLVQAGGSLRCSCSASGGIFVNYAMGWSRPAPGKETELVAAISRSGGSTYYADSVKGRFTISRDNANNTVYLQMNSLKPEDTAVYYCAKRRVYYGSRYHYWGEGTQVTVSS”, the “polyreactivity (PSR sort gate)” value is “high polyreactivity”.

Turning to “QVQLVESGGGLVQAGGSLRLSCAASGSTIYPNAMGWYRQAPGKERELVAVISSGGSTYYADSVKGRFTISRDNAKNTVYLLMNSLKPVDTAVYYCAADRGTVSYLYSPRAVDYWGQGTQVTVSS”, the “polyreactivity (PSR sort gate)” value is “low polyreactivity”. For “QVQLVESGGGLVQAGGSLRLSCAASGSTFDVYAMGWYRQAPGKERELVAAITWIGGSTYYADSVKGRFTISRDNAKNTVYLQMNSLKPDDTAVYYCARHDYGWVDYWGQGTQVTVSS” the value was “high polyreactivity”; for “QVQLVESGGGLVQAGGSLRLICDASGLTFIRNAMGCYRQATGKERELVAAITRRGGSTYYADSVKGRFTISRDNAKNTVYLQMHSLQPEDTPVDYCARRLYPSASYDYDYWGQGTQETVSS”, “high polyreactivity”; for “QVQLVESGGGLVQAGGSLRLSCAASGRIFNANAKGWYRQAPWKERELVAAITYSGGSTYYADSVKGRFTISRDNAKNTVYLQKNSLKPEDTAVYYCNVDYAGPYDYWGQGTQVTVSS”, “low polyreactivity”. As for “QVLLVESGGGLVQAGGSLRLSCAASGRIFNAYAMGWYRQAPGKERELVAAISRSGGRTYYADSVKGRFTISRDNAKITVYLQMNSLKPEDTAVYYCAADAWSEQYPKYYYWGQGTQVTVSS”, the entry is “low polyreactivity”. As for “QVQLVESGGGLVQAGGSLRLSCAASGFTFPGYAMGGYRQAPGKERELVAAISSTDRTTYADSVKGRFTISRDNAKNTVYLQMNSLKPEDTAVYYCNTATRRRPRGYWGQGTQVTVSS”, the entry is “high polyreactivity”.

For “QVQLVETGGGLVQAGGSLRLSCAASGSIFSGNAMGRSRPAPGKERELVGAITGSGGSTYYADSVKGRFTITRDNAKNTVYLQMNSLKPVDTAVYYCAVLFRTFYYWGQGTQVTVSS”, the “polyreactivity (PSR sort gate)” value is “high polyreactivity”. As for “QVQLVESGGGLVQAGGSLRLSCAASGSTFYYYARGWYRQAPGKERELVATITSGASTNYADSVKGRFTISRDNAKNTVYLQMNSLKPEDTAVYYCNAVSLTSYLPWSSYDYWGQGTQVTVSS”, the entry is “low polyreactivity”; as for “QVQLVESGGGLVQAGGSLRLSCAASGFIIQYYAMGWYRQAPGKERELVAVISLSGGRTSYADSVKGRFTISRDNAKNTVYLQMNSLKPEDTAVYYCARRVWSASNDYWGQGTQVTVSS”, “high polyreactivity”. Consider “QVQLQESGGGLVLAGGSLRLSCSASGNISVYGSMGWYRQAPGKEREFVATIDPGTNTNYADSVKDRFTISRDNAKNTVYLQMNSLKPEDTAVYYGAVEAGSDWPYPYWGQGTQVTVSS”, for which the “polyreactivity (PSR sort gate)” value is “low polyreactivity”. For “QVQLVESGGGLVQAGGSLRLSCAASGYTFSRYAMGLYRQAPGKERELVAAISHSAGRTYYADSVKGRFTISRDNAKNTVYLKMNSLKPEDTAVYYCATVLYSVPRYNYWGQGSQVTVSS” the value was “high polyreactivity”; for “QVQLVESGGGLVQAGGSLRLSCAACGSIFEAYAMGWYRKAPGKERELVAVINYSGGSTYYADSVKGRFTISRDNAKNTVYLQMNSLKPEDTAVYYCAADTVRPWYAYKAHDYWGLGTQVTVSS”, “low polyreactivity”; for “QVQLVESGGGLFQAGGSLRLSCAASGIIFAVYDMGWYRQAPGKERELVAAISWSGGSTYYADSVKGRFTISRDNAKNTVYLQMNSLKPEDTAVYYCNRVRYSRLGDYWGQGSQVTVSS”, “high polyreactivity”. For “QVQLVESGGGLVQAGGSLRLSCAASGRIFQKNAMGWYRQAPGKERELVAAISSGGSTNYADSVKGRFTISRDNAKNTVYLQMNSLKPEDTAVYYCAVESVYEYGGYVDSAYDYWGQGTQVTVSS” the value was “low polyreactivity”; for “QVQLVESGGGLVQAGGSLRLSCAASGSNFFYYVMGWYRQAPGKERERVAAITRSTGSTYYADSVKGRFTISRDNAKNTVYLQMNSLIPEDTAVYSCAAEGPKWYYSGAFDYWGQGTQVTVSS”, “low polyreactivity”. For “QVQLVESGGGLVQAGGSLRLSCAASGFIFGRYAMGWYRQAPGKERELVAAISRSGGSTHYADSVKGRFTISRDNAKNTVYLQMNSLKQVDTAVYYCNTYLTIWGYFYGYDYWGQGTQVTVSS” the value was “high polyreactivity”; for “QVQLVESGGGLVQAGGSLRLSCAASGRTFYVNTMGWYRQAPGKERELVASITWSDGSTYYADSVKGRFTISRDNAKNTVYLQMNSLKPDDSAVYYCAASGRFIVNAYRSWGRRRYEYWGQGTQVTVSS”, “high polyreactivity”; for “QVQLVESGGGIVQAGGSLRLSCAASGSTFFIYAMGWYRQAPGKERELVAAISGSGGTTYYADSVKGRFTISRDNAKNTVYLQMNSLKPEDTAVYYCAARTFSAFWRGGYDYWGQGTQVTVSS”, “low polyreactivity”. As for “QVQLVESGGGLVQAGGSLRLSCAASGFIFTRYAMGWYRQAPGKERELVAAISWIGTSTYYADSVKGRFTISRDNAKNTVYLQMNSLKPEDTAVYYCNALRYSTGRPGFYLGYDYWGQGTQVTVSS”, the “polyreactivity (PSR sort gate)” value is listed as “high polyreactivity”. As for “QFQLEESGRGLVQAGGSLRLSCAASGSTLSYNAMGCYRQAPGKERELVAAISGRGGSTSYADSVKGRFTITRDNAKKTVYLQMNRLKPVDTAVYYCIAGKYSSSAALYDYWGQGTQVTVSS”, the entry is “high polyreactivity”; as for “QVQLVESGGGLVQAGGSLRLSCAASGSTLVYNDMGWYRQAPGKEREFVAAIRSNDGSTYYADSVKGRFTISRDNAKNTVYLQMNSLKPEDTAVYYCAARYPARGTLYYWGQGTQVTVSS”, “low polyreactivity”.

In the case of “QVQLVESGGGLVQAGGSLRLICAASGRIFVPYAMGWYRQAPGKERELVAAITYDGGSTYYADSVKGRFTISRDNAKNTVYLQMNSLKPEDTAVYYCAADYGYSQYILGQFRLEELDYWGQGTQVTVSS”, the “polyreactivity (PSR sort gate)” value was “low polyreactivity”. For “QVQLEESGGGLVQAGGRLRLSCAASGPIFGYYAMGWYRQAPGKERELVAGIDWSGGNTYYADSVKGRFTISRDNAKYTVYLQMNSLKPEDTAVYYCNTEGGRDTAWYDYWGQGTQVTVSS” the value was “low polyreactivity”. As for “QVQLQESGGGLVQAGGSLRLSCAASGNIYEADIMGWYRQAPGKERELVTSITDGGSTNYADSVKGRFTISRDNAKNTVYLQMNSLKPEDTAVYYCAAIAYPDIPTSFDYNSDYSYWGQGTQVTVSS”, the entry is “low polyreactivity”; as for “QVQLVESGGGLVQAGGSLRLSGDATGLIFNKYAMGWYRQAPGKERELVAVISFRGDGTHYADSVKGRFTISRDNAKYTVYLQMNSLKPEDTAVYYCNARTSIYGRRLYDYWGQGTQVTVSS”, “high polyreactivity”; as for “QVQRVESGGGLVQAGGRLRLSCAASGSTFRQYAMGWYRQAPGKERELVAAITGGGGSTYYADSVKGRFTISRDNAKNTVYLQMNSLKPEDTAVYYCNAVHRYERDYWGQGTQVTVSS”, “high polyreactivity”.

In the case of “QVQLVESGGGLVQAGGILRLSCAPSGRTLPPNAMGWYRHAPGKERELFAGSTWSGGSTYYADSVKGRFTISRDNAKNTVYLPMNSLKPEVTAVYYCAASRSFPGYGLYYYWGQGTQVTVSS”, the “polyreactivity (PSR sort gate)” value is “low polyreactivity”. As for “QVQLVESGGGLVQAGGSLRLSCAASGSIYRYAMGWYRQAPGKERELVAAINFNGGRTYYADSVKGRFTISRDNAKNTVYIQMNSLKPEDTAVYYCAAVRSSNQGGFDYWGQGTQVTVSS”, the entry is “high polyreactivity”; as for “QVQLVESGGGLVQAGGSLRLSCAASMGLYRQAPGKERDLVATITSDAGTNYADSVKGRFTISRDNAKNTVYLQRNSLKPEDTAVYYCNADGYDSSDFGEGDYWGQVTQVTVSS”, “low polyreactivity”. For “QVQLVESGGGLVQAGGSLRLSCSASGSTFRGYAMGWYRQAPGKDRELVAAISWSGGSTYYADSVKGRFTISRDHAKNTVYLQMNSLKPVDTAVYYCNAVGYLDFEWGQGTQVTVSS” the value was “low polyreactivity”; for “QVQLVESGGGLVQAGGSLRLRCAASGSTFGPYVMGWYRQAPGKVRELVAVISGGSTDYADSVKGRFTISRDNAKNNVYLQINSLKPEDTAVYYCNAEYYFYLSPTVYLYDYWGQGTQVTVSS”, “high polyreactivity”; for “QVQLVESGGGLVQAGGSLRLSCAASGSIFVKYAMGWYRQAPGKERELVAAISRSGTRTYYADSVKGRFTISRDNAKNTVYLQMNSLKPEDTAVYYCAAAATTVRAYEYWGQGTQVTLSS”, “high polyreactivity”. For “QVQLVESGRRLVQAGGSLRLTCAASGSTFTRYAMGWYRQAPGKERELVASISGSGGRTYYADSVKGRFTISRDNAMNTVYLQMNSLKPEDTAVYYCAAKITRRYYPGYLFDYWGQGNQVTVSS” the value was “high polyreactivity”. As for “QVQLVETGGGLVQAGGSLRISCAASGSTFVDYDMGWYRQAPGKERELVAGITTGGSTNYADSVKGRFTISRDNAKNTVYLQMNSLKPEDTAVYYCNADSYPNLVPDYLYYWYEYWGQGTQVTVSS”, the “polyreactivity (PSR sort gate)” value is on record as “low polyreactivity”. As for “QVQLVESGGGLVQAGGSLRLSCAASGRTFARYTMGWYRQAPGKERELVASITRGGSTYYADSVKGRFTISRDNAKNTVYLQMNSLKPEDTAVYYCAARFPQHNYWAMDYWGQGTQVTVSS”, the entry is “high polyreactivity”; as for “QVQLVESGAGLVQAGGSLRLSCAASGRTFWWYAMGWDRQAPGKERELVADINGSGGSTYYADSVKGRFTISRDNAKNTVYLQMICLKPEDTAVYFCAADYYRYIHSVVYSIYDYWGQGTQVTVSS”, “low polyreactivity”; as for “QVQLVESGGGLVQAGGSLRLSCAASGSTFGYYTMGWYRQAPGKERELVAAISRSGGRTYYADSVKGRFTISRDNAKNAVYLQMNSLKPEDTAVYYCNADGTRYAGDDYWGQGTQVTVSS”, “high polyreactivity”. As to “QVQLVESGGGLGQAGVSLRLSCAASGRIFYFNAMGWYRQAPGKEREMVAANSWSGGSTYYADSVKGRFTISRDNAKNTVYLQMNSLKPEDTAVYYCATDSYRQGDYYLGRVDYWGQGTQVTVSS”, the “polyreactivity (PSR sort gate)” value is “low polyreactivity”.

With “QVQLVESGGGLVQAGGSLRLSCAASGSTFFRYAMGWYRQAPGKERELVAAISWSGGTTYYADSVKGRFTISRDNAKNTVYLQMNSLKPEDTAVYYCAVDGGRWGQGTQVTVSS”, the “polyreactivity (PSR sort gate)” value was “low polyreactivity”. For the sequence “QVQLVESGGGLVQAGGSLRLSCAASGRTFGANAMGWYRQAPGKERELVAGITSSGGSTSYADSVKGRFTISRDNAKNTVYLQMNSLKPEDTAVYYCAKDVYQHIFDVILGGYDSWGQGTQVTVSS”, the “polyreactivity (PSR sort gate)” value was “low polyreactivity”.
